Measurements from paper doi:10.1101/2025.07.03.663104.

Target: OsPR5-His (rice (Oryza sativa)) (UniProt P31110)
Experiment: BLI

OsPR5-His (rice (Oryza sativa)), sequence (P31110 27-177): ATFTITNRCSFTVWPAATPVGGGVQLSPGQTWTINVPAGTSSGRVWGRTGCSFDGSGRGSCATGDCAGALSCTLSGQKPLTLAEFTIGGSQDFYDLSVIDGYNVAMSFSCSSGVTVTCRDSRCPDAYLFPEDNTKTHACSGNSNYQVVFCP

Substance	Kd [nM]
GBP-His (natural protein)	0.745
ThBP15k (recombinant, no tag named) (natural protein)	25.9
